US8859723 (dated 2014)
Like-named read-outs stand apart in the source and are kept apart here.

Key:
[1] = biological target: T1, hDMX (In-house, 40 kD) (human, UniProt O15151 1-120); assay: FP competition
T1 chain: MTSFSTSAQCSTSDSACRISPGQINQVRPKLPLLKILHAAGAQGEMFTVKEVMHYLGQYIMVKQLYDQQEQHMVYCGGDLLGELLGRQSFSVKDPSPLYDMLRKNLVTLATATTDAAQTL

[2] = biological target: T2, hDM2 (In-house, 41 kD) (human, UniProt Q00987 1-125); assay: FP competition
[3] = biological target: T2, hDM2 (In-house, 41 kD); assay: FP competition; remark: listed apart in the source
[4] = biological target: T1, hDMX (In-house, 40 kD); assay: FP competition
[5] = biological target: SP-5; assay: Affinity selection MS
[6] = biological target: SP-44; assay: Affinity selection MS

WTFALYWSQLAS (not fully specified) [SP-696]
IC50 [1]: 379 nM

ITFAFYWAQLAS (not fully specified) [SP-684]
IC50 [2]: 104 nM

ETFAAYWAQLAS (not fully specified) [SP-508]
IC50 [3]: 22.8 nM
IC50 [4]: 88.8 nM

LTFAAYWSQLAA (not fully specified) [SP-698]
IC50 [2]: 82.2 nM
IC50 [1]: 157 nM

B1: GST-hDM2 (other)
chain: MCNTNMSVPTDGAVTTSQIPASEQETLVRPKPLLLKLLKSVGAQKDTYTMKEVLFYLGQYIMTKRLYDEKQQHIVYCSNDLLGDLFGVPSFSVKEHRKIYTMIYRNLVVVNQQESSDSGTSVSEN
Kd [5]: 25 nM
Kd [6]: 25 nM

LTFAVYWAQLAA (not fully specified) [SP-623]
IC50 [2]: 68.3 nM

B2: GST-hDMX (other)
chain: MTSFSTSAQCSTSDSACRISPGQINQVRPKLPLLKILHAAGAQGEMFTVKEVMHYLGQYIMVKQLYDQQEQHMVYCGGDLLGELLGRQSFSVKDPSPLYDMLRKNLVTLATATTDAAQTL
Kd [5]: 90 nM
Kd [6]: 180 nM

LTFAEYWAQLAA (not fully specified) [SP-671]
IC50 [2]: 63.6 nM

LTFAAYWVQLAS (not fully specified) [SP-681]
IC50 [2]: 118 nM
IC50 [1]: 395 nM

ETFAAYWAQLAA (not fully specified) [SP-709]
IC50 [2]: 103 nM

LTFAFYWAQLAA (not fully specified) [SP-604]
IC50 [1]: 310 nM

LTFAAYWAQFAS (not fully specified) [SP-586]
IC50 [1]: 673 nM

LTFAAYWAALAS (not fully specified) [SP-673]
IC50 [2]: 137 nM
